Assays:
[1] = target: T1, His-SUMO-MLLE (PABPC1 MLLE domain 544-626 fused with a His-tagged SUMO tag) (Homo sapiens (Human), UniProt P11940); assay: Ni-NTA pull-down, SDS-PAGE
T1 chain: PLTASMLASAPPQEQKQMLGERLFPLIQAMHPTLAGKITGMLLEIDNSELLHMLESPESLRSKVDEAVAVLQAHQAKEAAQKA

[2] = target: LARP4A (1-287), N-terminal domain (Homo sapiens (Human), UniProt Q71RC2); assay: competition EMSA (MLLE displacing 32P-oligoA15 from NTD); mutually exclusive with oligoA15 RNA; measured by competition with preformed NTD-oligoA15 complex
Chain of LARP4A (1-287), N-terminal domain (Homo sapiens (Human), UniProt Q71RC2) (Q71RC2 1-287): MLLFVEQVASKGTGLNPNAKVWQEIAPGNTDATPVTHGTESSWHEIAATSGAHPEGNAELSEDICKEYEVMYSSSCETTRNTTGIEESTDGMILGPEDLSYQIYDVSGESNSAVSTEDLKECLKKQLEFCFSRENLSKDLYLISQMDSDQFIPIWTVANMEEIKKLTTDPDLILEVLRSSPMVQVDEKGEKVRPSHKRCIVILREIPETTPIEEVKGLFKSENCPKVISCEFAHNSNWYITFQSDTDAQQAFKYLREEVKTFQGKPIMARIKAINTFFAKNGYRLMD

B1: LARP4A (1-287), N-terminal domain (protein)
chain: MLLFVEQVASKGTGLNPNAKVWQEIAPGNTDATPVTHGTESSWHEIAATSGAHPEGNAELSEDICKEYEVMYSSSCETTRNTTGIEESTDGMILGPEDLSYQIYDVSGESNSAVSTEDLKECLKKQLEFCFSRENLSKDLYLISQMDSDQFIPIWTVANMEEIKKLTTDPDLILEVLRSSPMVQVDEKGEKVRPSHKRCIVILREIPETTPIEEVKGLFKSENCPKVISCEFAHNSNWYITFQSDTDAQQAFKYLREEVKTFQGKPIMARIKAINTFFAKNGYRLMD
Question: Does B1 bind [1]?
Answer: binds

B2: PABPC1 MLLE (544-626) (protein)
chain: PLTASMLASAPPQEQKQMLGERLFPLIQAMHPTLAGKITGMLLEIDNSELLHMLESPESLRSKVDEAVAVLQAHQAKEAAQKA
Question: Does B2 bind [2]?
Answer: binds

Source: publication PMC6486636 (2019)
